According to patent US8501695B2, “Tissue kallikrein for the treatment of diseases associated with amyloid protein” (DiaMedica, Inc., priority 2007, dated 2013):

Test system: amyloid fibrils (fAβ) from synthetic human amyloid protein Aβ1-42 or Aβ1-40
Assay: In vitro amyloid protein cleavage assay, digestion of fibrils, mass spectroscopy
Assay type: biochemical
Conditions: 37° C., 4 h to 5 days, mass spectra FIG. 1
Procedure: Synthetic human amyloid protein Aβ1-42 or Aβ1-40 was dissolved in dimethyl sulfoxide (DMSO) (Sigma, St. Louis, Mo.) to a concentration of 5 mM, and is then diluted in MilliQ® water to a final concentration of […] immediately prior to use. To prepare amyloid fibrils (fAβ) 5 mM Aβ1-42 or Aβ1-40 in DMSO was diluted in 10 mM HCl to 100 μM (for Aβ1-42) or […] (for Aβ1-40), vortexed for 30 s, and was incubated at 37° C. for 5 days. KLK1 (Sigma) was used for digestion reactions in the following buffers: ECE, 0.1 M MES, 0.1 M NaCl (pH 6.0); IDE, 50 mM Tris, 1 M NaCl (pH 7.5); NEP, 0.1 M MES (pH 6.5); and MMP-9, 50 mM Tris-HCl (pH 7.5), 10 mM CaCl2, 150 mM NaCl, 0.05% Brij 35. It was incubated at 37° C. for 4 h to 5 days. After digestion, the reaction was analyzed by mass spectroscopy. The samples were added to 50 mM glycine (pH 9.2)/2 mM thioflavin T (ThT) (Sigma) at a final volume of up to 2 ml. […] However, in panel C, there is a clear peak at about 2423 M/Z (mass to charge ration), which is an indication of cleavage.

Sequence of amyloid fibrils (fAβ) from synthetic human amyloid protein Aβ1-42 or Aβ1-40 (P05067 672-711 limits assumed): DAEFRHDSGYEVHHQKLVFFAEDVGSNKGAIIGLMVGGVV

B1: tissue kallikrein: serine protease that cleaves kininogen into kallidin; polypeptide SEQ ID NO:1 (Sus scrofa kallikrein 1), KLK1 from Sigma (protein, listed as Sus scrofa)
chain: MWSLVMRLALSLAGTGAAPPIQSRIIGGRECEKDSHPWQVAIYHYSSFQCGGVLVDPKWVLTAAHCKNDNYQVWLGRHNLFENEVTAQFFGVTADFPHPGFNLSLLKNHTKADGKDYSHDLMLLRLQSPAKITDAVKVLELPTQEPELGSTCQASGWGSIEPGPDDFEFPDEIQCVELTLLQNTFCADAHPDKVTESMLCAGYLPGGKDTCMGDSGGPLICNGMWQGITSWGHTPCGSANKPSIYTKLIFYLDWINDTITENP
modifications: 125I label in one form
- cleavage of amyloid fibrils: cleaves amyloid fibrils
